Experiments:
[1] = biological target: SARS-CoV-2 full length spike protein, V367F mutant, expressed on the surface of CHO cells (SARS-CoV-2, UniProt P0DTC2 14-1273)
[2] = biological target: SARS-CoV-2 full length spike protein, D614G mutant, expressed on the surface of CHO cells (SARS-CoV-2, UniProt P0DTC2 14-1273)
[3] = biological target: SARS-CoV-2 full length spike protein, V367F mutant (SARS-CoV-2, UniProt P0DTC2 14-1273)
[4] = biological target: SARS-CoV-2 full length spike protein, D614G mutant (SARS-CoV-2, UniProt P0DTC2 14-1273)

Binder	median fluorescence intensity, fold over isotype control [1] [fold over isotype]	median fluorescence intensity, fold over isotype control [2] [fold over isotype]	median fluorescence fold over isotype control [3] [fold over isotype]	median fluorescence fold over isotype control [4] [fold over isotype]
antibody 318 (antibody, V domains shown) VH: QVQLVESGGGVVPPGRSLSLPCAASGFSFSAYAMHWLRQAPGKGLEWVAVISYDGTVKYVADSVRGRFTISRDNSNNTLYLQMTSLRSDDTAVYYCARDLGALAAAPTVYFVHWGQGTLVTVSS VL: SYVLTQPPSVSVAPGKTATITCAGEDIGRKSVHWYQQKPGQAPVLVIFYYSDRPSGIPDRFSGSVSGNTATLTIGRVEAGDEADYFCQVWDRTTNHVIFGGGTKVTVL	40.3	9.92	–	–
antibody 440 (antibody, V domains shown) VH: EVQLLESGGGLVQPGGSLRLSCAASGFTFSSYAMSWVRQAPGKGLEWVSAISGSGVNTYHADSVKGRFTISRDNSRNTLYLQMSSLTAEDTAAYYCAKDFEAASGAYYYYGMDVWGQGTTVTVSS VL: SYELTQPPSVSVSPGQTARITCSGDALPDQYAYWYQQKPGQAPVVVIYKDRERPSGIPERFSGSNSGTTVTLTISGVQAEDEADYYCQSADSSATYVVFGGGTKLTVL	–	–	7.17	15.8
antibody 441 (antibody, V domains shown) VH: EVQLVESGGGVVRPGGSLRLSCAASGFTFGDYGMSWVRQAPGKGLEWVSGINWNGGSTGYADSVKGRFTISRDNAKNSLYLQMNSLRAEDTALYYCASDLVRGVIGFDYWGQGTLVTVSS VL: SYELTQPPSVSVSPGQTARITCSGDALPKQYAYWYQQKPGQAPVLVIYKDSERPSGIPERFSGSSSGTTVTLTISGVQAEDEADYYCQSADSSGITGVFGGGTKLTVL	–	–	6.24	14.9
antibody 433 (antibody, V domains shown) VH: QVQLVESGGGVVQPGRSLRLSCAASGFTFSSYAMHWVRQAPGKGLEWVAVISYDGSNKYYADSVKGRFTISRDNSKNTLYLQMNSLRAEDTAVYYCAKDYEVVIAIGGPGAFDYWGQGTLVTVSS VL: SYVLTQPPSVSVAPGKTARITCGGNNIGSKSVHWYQQKPGQAPVLVIYYDSDRPSGIPERFSGSNSGNTATLTISRVEAGDEADYYCQVWDSSSDHVVFGGGTKLTVL	–	–	12.3	23.1
antibody 311 (antibody, V domains shown) VH: QVQLQESGPGLVKPSETLSLTCTVSGYSISSGYYWGWIRQPPGKGLEWIGSIYHSGSTYYNPSLKSRVTISVDTSKNQFSLKLSSVTAADTAVYYCAREETLGSSWYESYIDYWGQGTLVTVSS VL: SYVLTQPPSVSVAPGKTARITCGGNNIGSKSVHWYQQKPGQAPVLVIYYDSDRPSGIPERFSGSNSGNTATLTISRVEAGDEADYYCQVWDSSSDHPRVFGGGTKLTVL	29.6	59.7	–	–
antibody 458 (antibody, V domains shown) VH: QVQLVESGGGVVQPGRSLRLSCAASEFTFATYAMHWVRQAPGKGLEWVALISQDGSNKHYADSVKGRFTISRDNSKNTLYLQMNSLRAEGTAIYYCARESLEAAGPPFDYWGQGTLVTVSS VL: SYELTQPPSVSVSPGQTATIICSGDKLGEKYASWYQQKPGQSPALVIYQDRKRPSGIPERFSGSNSGNTATLTISGTQAMDEADYYCQAWDSSNSVVFGGGTKLTVP	–	–	27.4	6.23
antibody 451 (antibody, V domains shown) VH: EVQLVESGGGLVQPGGSLRLSCAASGFTFSTYWMSWVRQAPGKGLEWVANIKQDGSEKYYVDSVKGRFTISRDNAKNSLYLQMNSLRAEDTAVYYCARLGGSSWYFDYWGQGTLVTVSS VL: not shown	–	–	29.9	6.29
antibody 453 (antibody, V domains shown) VH: QVQLVESGGGVVQPGRSLRLSCAASGFTFSSYAMYWVRQAPGKGLEWVAVISYDGSNKYYADSVKGRFTISRDNSKNTLYLQMNSLRAEDTAVYYCARDRPHYYGSGRKILNLYGMDVWGQGTTVTVSS VL: DIQLTQSPSFLSASVGDRVTITCRASQGISSYLAWYQQKPGKAPKLLIYAASTLQSGVPSSFSGSGSGTEFTLTISSLQPEDFATYYCQQLNSYPPFTFGPGTKVDIK	–	–	39.4	7.41
antibody 355 (antibody, V domains shown) VH: QVHLVESGGGVVQPGRSLRLSCAASGFTFSSFPMHWVRQAPGKGLEWVAVISYDGGDEHYTDSVEGRFTISRDNSLNTLYLQMSSLRLEDTAVYYCARDRYDSSGYYYVSDYWGQGTLITVSS VL: SYELTQPPSVSVSPGQTARISCSGDALPKQYAYWYQQKPGQAPVLVIYKDSERPSGIPERFSGSSSGTTVTLTISGVQAEDEADYYCQSADSRGTDPWVFGGGTKLTVL	8.08	20.3	–	–
antibody 438 (antibody, V domains shown) VH: EVQLVESGGGLVQPGGSLRLSCAASGFTFSSYSMNWVRQAPGKGLEWVSYISSSSSTIYYADSVKGRFTISRDNAKNSLYLQMNSLRAEDTAVYYCARDRGYSDYGPYYYGMDVWGQGTTVTVSS VL: not shown	–	–	44	71.2
antibody 448 (antibody, V domains shown) VH: QVQLVQSGAEVKKPGASVKVSCKASGYTFTSYGISWVRQAPGQGLEWMGWISAYNGNTNYAQKLQGRVTMTTDTSTSTAYMELRSLRSDDTAVYYCAIELLEGFYYYYGMDVWGQGTTVTVSS VL: SYELTQPPSVSVSPGQTARITCSGDALPKQYAYWYQQKPGQAPVLVIYKDSERPSGIPERFSGSSSGTTVTLTISGVQAEDEADYYCQSADSSGTYPYVVFGGGTKLTVL	–	–	5.79	13.3
antibody 455 (antibody, V domains shown) VH: QVQLVQSGAEVKKPGSSVKVSCKASGGTFSSYAISWVRQAPGQGLEWMGRIIPILGIANYAQKFQGRVTITADKSTSTAYMELSSLRSEDTAVYYCARDSIVVPAAIISGYYYYGMDVWGQGTTVTVSS VL: QSVLTQPPSVSAAPGQKVTISCSGSSSNIGNNYVSWYQQLPGTAPKLLIYDNNKRPSGIPDRFSGSKSGTSATLGITGLQTGDEADYYCGTWDSSLSAGRVFGGGTKLTVL	–	–	32.3	8.24
antibody 314 (antibody, V domains shown) VH: EVQLVESGGGLVKPGGSLRLSCAASGFTLSSYSMNWVRQAPGKGLEWVSCISSSSSYIYYADSVKGRFTISRDNAKNSLYLQMNSLRAEDTAVYYCASDPLDIVVVPAARDYYYYGMDVWGQGTTVTVSS VL: not shown	19.6	30.4	–	–
antibody 430 (antibody, V domains shown) VH: QVHLVEAGGGVVQPGKSLRLSCAASGFIFSNFGMHWVRQSPGKGLEWVAVVSYDASVTKYSDSFEGRFTISRDNSKNTLYLQMDSLRPEDSAVYYCAKGQGANLLHDWGQGILVTVSS VL: DVVLTQSPLSLPVTLGQPASISCRSSESLVYTDGDTYLHWFHQRPGQSPRRLIYKVSNRDSGVPDRFSGSGSGTDFTLRISRVEAEDVGVYYCMQGTHWPFTFGPGTKVDIK	–	–	38.3	9.17
antibody 330 (antibody, V domains shown) VH: QVQLVESGGGVVQPGRSLRLSCAASGFTFSSYAMHWVRQAPGKGLEWVAVISYDGSNKYYADSVKGRFTISRDNSKNTLYLQMNSLRAEDTAVYYCARDFQYYDFWSGYLTVSSPTSYYGMDVWGQGTTVTVSS VL: NFMLTQPHSVSESPGKTVTISCTGSSGSIASNYVQWYQQRPGSAPTTVIYEDNQRPSGVPDRFSGSIDSSSNSASLTISGLKTEDEADYYCQSYDSSNVVFGGGTKLTVL	22.4	56.5	–	–
antibody 346 (antibody, V domains shown) VH: EVQLVQSGAEVKKPGESLKISCKGSGYSFTSYWIGWVRQMPGKGLEWMGIIYPGDSDTRYSPSFQGQVTISADKSISTAYLQWSSLKASDTAMYYCARHGPQDGYSSSWYLDYWGQGTLVTVSS VL: not shown	7.05	8.57	–	–
antibody 312 (antibody, V domains shown) VH: QVQLVQSGAEVKKPGASVKVSCKASGYTFTSYGISWVRQAPGQGLEWMGWISAYNGNTNYAQKLQGRVTMTTDTSTSTAYMELRSLRSDDTAVYYCARMLIAAAGTSRDYYGMDVWGQGTTVTVSS VL: not shown	11.3	24.5	–	–
antibody 338 (antibody, V domains shown) VH: QVQLQESGPGLVKPSETLSLTCAVSGYSISSDYYWGWIRQPPGKGLEWIGSIYHSGSTYYNPSLKSRVTISIDTSKNQFSLKLSSVTAADTAVYYCARDPGNYDILTGIFDYWGQGTLVTVSS VL: QSALTQPASVSGSPGQSITISCTGTSSDVGVYNYVSWYQQHPGKAPKLMIYDVTNRPSGVSNRFSGSKSGNTASLTISGLQAEDEADYYCSSYTSSSTLAVYVFGTGTKVTVL	33.2	7.81	–	–
antibody 461 (antibody, V domains shown) VH: EVQLVESGGGLVKPGGSLRLSCAASGFTFSSYSMNWVRQAPGKGLEWVSSISSSSSYIYYADSVKGRFTISRDNAKNSLYLQMNSLRAEDTAVYYCASNPAAGQEAYYYYGMDVWGQGTTVTVSS VL: not shown	–	–	6.89	27.8
antibody 449 (antibody, V domains shown) VH: not shown VL: QSALTQPASVSGSPGQSITISCTGTSSDVGGYNYVSWYQQHPGKAPKLMIYEVSNRPSGVSNRFSGSKSGNTASLTISGLQAEDEADYYCSSYTSSSTVVFGGGTKLTVL	–	–	36.9	68.1

Source: patent US20210292393A1 (published 2021)
